US11407819B2, “Compositions and use of a fibrinogen binding motif present in EFB and COA for therapeutics and vaccines against Staphylococcus aureus” (priority 2013, dated 2022)
Entries after “also recorded” stand apart in the source; their conditions may differ.

Columns and labels:
rEfb-N binding to Fg = biological target: T1, rEfb-N binding to Fg (Homo sapiens, UniProt P02671+P02675+P02679); assay: Competition ELISA, peptide inhibition of rEfb-N (Efb 30-104) binding to Fg; settings: increasing concentration of peptides; 2 nM GST fusion protein
T1 construct: full-length human Fibrinogen (diluted in PBS, Enzyme research); purchased Enzyme research; host or cells: Efb probe made in E. coli
T1 sequence (P02671 20-629 limits assumed): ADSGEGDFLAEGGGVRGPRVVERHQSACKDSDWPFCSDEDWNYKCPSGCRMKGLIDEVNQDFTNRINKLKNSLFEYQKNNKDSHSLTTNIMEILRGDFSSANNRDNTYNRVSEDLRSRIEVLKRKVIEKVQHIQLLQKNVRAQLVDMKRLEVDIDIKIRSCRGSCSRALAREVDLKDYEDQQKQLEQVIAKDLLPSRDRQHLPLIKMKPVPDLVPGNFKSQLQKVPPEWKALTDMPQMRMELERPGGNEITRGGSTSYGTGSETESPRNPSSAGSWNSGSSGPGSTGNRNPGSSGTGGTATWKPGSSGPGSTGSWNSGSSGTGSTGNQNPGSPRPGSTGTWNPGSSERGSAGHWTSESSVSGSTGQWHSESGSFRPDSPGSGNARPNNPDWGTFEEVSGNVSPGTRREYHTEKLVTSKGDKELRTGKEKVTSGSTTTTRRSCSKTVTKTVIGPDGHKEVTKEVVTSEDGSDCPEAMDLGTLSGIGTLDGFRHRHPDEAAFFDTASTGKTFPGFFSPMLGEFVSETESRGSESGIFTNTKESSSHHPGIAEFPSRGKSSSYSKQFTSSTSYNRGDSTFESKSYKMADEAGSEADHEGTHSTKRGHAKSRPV
T1 sequence (P02675 31-491): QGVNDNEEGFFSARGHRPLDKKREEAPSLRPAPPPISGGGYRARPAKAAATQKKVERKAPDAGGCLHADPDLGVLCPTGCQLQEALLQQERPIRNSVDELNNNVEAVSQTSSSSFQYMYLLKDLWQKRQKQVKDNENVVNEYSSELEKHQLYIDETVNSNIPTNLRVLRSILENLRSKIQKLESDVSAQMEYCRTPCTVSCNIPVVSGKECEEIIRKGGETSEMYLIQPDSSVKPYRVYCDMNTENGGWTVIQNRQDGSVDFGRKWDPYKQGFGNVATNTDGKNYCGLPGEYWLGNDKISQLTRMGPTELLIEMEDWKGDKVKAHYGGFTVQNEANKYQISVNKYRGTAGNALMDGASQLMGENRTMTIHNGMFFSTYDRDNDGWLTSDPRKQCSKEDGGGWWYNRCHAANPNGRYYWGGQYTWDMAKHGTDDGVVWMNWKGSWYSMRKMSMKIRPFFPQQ
T1 sequence (P02679 27-453): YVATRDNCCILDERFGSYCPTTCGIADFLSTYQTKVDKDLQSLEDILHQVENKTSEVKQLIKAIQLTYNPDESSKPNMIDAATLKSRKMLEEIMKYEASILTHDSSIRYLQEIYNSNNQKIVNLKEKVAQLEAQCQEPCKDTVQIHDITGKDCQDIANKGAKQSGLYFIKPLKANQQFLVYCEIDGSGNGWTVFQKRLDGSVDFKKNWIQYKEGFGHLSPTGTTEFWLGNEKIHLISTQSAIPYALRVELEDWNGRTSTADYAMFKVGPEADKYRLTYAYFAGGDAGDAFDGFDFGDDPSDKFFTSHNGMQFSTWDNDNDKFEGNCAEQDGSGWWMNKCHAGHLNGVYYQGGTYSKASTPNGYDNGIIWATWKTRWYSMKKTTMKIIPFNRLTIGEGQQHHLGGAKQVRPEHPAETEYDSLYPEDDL
Text: Coa-F contains an Efb like fibrinogen binding motif. FIG. 11A is an image of a ClustalW alignment of amino acid sequence from Efb-O (Efb 68-98) and Coa from Newman strain (col-Newman). Sequence similarity was identified at Coa 474-505. Bold letters denote conserved residues and underlined letters represent similar residues. FIGS. 11B and 11C show a comparison of amino acid sequence of Efb-O with Coa 474-505 (FIG. 11B) and Coa 506-532 (FIG. 11C). Large letters in Efb-O indicate the residues important for Fg binding. The red letters show the identical residues and the yellow letters indicate the similar residues. […] Increasing concentration of Coa peptides was incubated with 2 nM GST fusion proteins in Fg-coated microtiter wells. Closed square, sCoa-O; closed circle, sCoa-RI; closed triangle, sEfb-O.
A peptide was synthesized that corresponds to the Coa-O sequence (sCoa-O) and determined its Fg binding activity in a competition ELISA. Microtiter wells were coated with Fg and binding of the recombinant N-terminal segment of Efb (rEfb-N), that harbors the two Fg binding sites, was quantitated in the presence of increasing concentration of different synthetic peptides.
In the case of peptide inhibition assay, various concentration of Efb or Coa peptides were mixed with a fixed concentration of Coa-GST or Efb-GST fusion proteins (5-10 nM) in TBS and the bound GST fusion proteins were detected through incubation with HRP-conjugated rabbit anti-GST polyclonal antibodies (5000× dilution). All proteins were diluted in TBS containing 1% BSA and 0.05% TWEEN® 20 and the ELISA assays were carried out at room temperature.

THP-1 cells = assay: THP-1 cell adherence to immobilized Fg; format: cell-based
Description: Cell adherence assay using cell lines—A monocytic cell line THP-1 cell stably expressing αMβ2 was maintained in RPMI1640 supplemented with 10% fetal bovine serum, […] L-glutamine, 100 units/ml penicillin and 100 μg/ml streptomycin. Prior to use, cells were harvested by centrifuge, washed and suspended in RPMI 1640/1% human serum albumin. For cell adherence assays, 48-well plates were coated with 200 μl of Fibrinogen (10 μg/ml) overnight at 4° C. followed by 1 hour at 37° C. before blocking with 1% Polyvinylpyrrolidone (PVP 3600 kDa) for 45 minutes at 37° C. Subsequently, the cells were seeded 2×10^5/well in the presence or absence of Coa or Efb recombinant proteins or peptides and incubated at 37° C. for 25 minutes. Non-adherent cells were removed by washing gently three times with PBS/1% BSA. Adherent cells were quantitated with CyQuant kit according to the manufacturer's manual.

[1] = test system: Coa-F, Coa-R0, Efb-N, Efb-O, Efb-A binding to Fg; assay: Inhibition by FBE5 scFv-Fc of Coa and Efb fragment binding to immobilized human Fg; design: species or system Staphylococcus aureus; settings: scFv-Fc 0.5, 5, 50 μg/ml; for inhibition of binding to Fg of all proteins tested: Coa-F, Coa-R0, Efb-N, Efb-O 10 nM, Efb-A 750 nM
Description: To assess the inhibitory activity of anti-Coa scFv-Fc antibodies, 0.5 μg/well of human Fg was immobilized at 4° C. overnight in 50 mM Carbonate Buffer, pH 9.6. Indicated amounts (50, 5, 0.5 μg/ml) of scFv-Fcs prepared in 2% BSA+1×TBS+0.05% TWEEN® 20 were pre-incubated for 1 hour with a constant concentration of Coa or Efb fragments also prepared in 2% BSA+1×TBS+0.05% TWEEN® 20 at room temperature, 250 rpm shaking. Specifically, Coa-F, Coa-R0, Efb-N and Efb-O were at a fixed concentration of 10 nM; whereas Efb-A was at 750 nM. Fg-binding activity of each protein alone was also checked (no mAb control—0 μg/ml). The Fg-coated plate was blocked with 2% BSA-TBST and washed with PBST. […] Residual bound Coa and Efb fragments were detected with HRP-conjugated (HorseRadish Peroxidase-conjugated) α-GST-tag antibody, except for Efb-N, where an HRP-conjugated α-HIS-tag was used (see FIG. 18). HRP-tagged antibodies were diluted in 2% BSA+1×TBS+0.05% TWEEN® 20 and used at 1:10000 dilution. […] HRP signal was developed using […]™ OPD tablets using manufacturer's guidelines. Binding of Coa and Efb fragments to Fg (no mAb control) was set to 100% and residual binding to Fg of Coa and Efb fragments in the presence of different concentrations of antibodies was calculated and represented.
To assess the inhibitory activity of anti-Coa scFv-Fc antibodies, 0.5 μg/well of human Fg was immobilized at 4° C. overnight in 50 mM Carbonate Buffer, pH 9.6. Indicated amounts (0, 0.5, 5, and 50 μg/ml) of scFv-Fcs were pre-incubated for 1 hour with a constant concentration of Coa or Efb fragments. Specifically, Coa-F, Coa-R0, Efb-N and Efb-O were at a fixed concentration of 10 nM; whereas Efb-A was at 750 nM. Fg-binding activity of each protein alone was also checked (no mAb control—0 μg/ml). The Fg-coated plate was blocked with 2% BSA-PBST and washed with PBST. The pre-incubated mixture of Coa/Efb and anti-Coa scFv-Fc was transferred on the Fg-coated plate. Residual bound Coa and Efb fragments were detected with HRP-conjugated (HorseRadish Peroxidase-conjugated) α-GST-tag antibody, except for Efb-N, where an HRP-conjugated α-HIS-tag was used. Binding of Coa and Efb fragments to Fg (no mAb control) was set to 100% and residual binding to Fg of Coa and Efb fragments in the presence of different concentrations of antibodies was calculated and represented.

With “sCoa-O: synthetic peptide corresponding to Coa-O, residues Coa 474-505 (KYVKYRDAGTGIREYNDGTFGYEARPRFNKPS)” the “inhibition of rEfb-N binding to Fg” value (rEfb-N binding to Fg) was “potent inhibitor; also recorded: effectively inhibited rEfb-N binding to Fg”, the “inhibition of THP-1 adherence to immobilized Fg” value (THP-1 cells; M1/70 20 μg/ml, rEfb 0.2 μM, rCoa 0.5 μM, peptides 0.5 μM each) was “did not inhibit THP-1 adherence” and the “reversal of inhibition of THP-1 adherence elicited by rEfb or rCoa” value (THP-1 cells; peptide 50 μM preincubated with rEfb (0.2 μM) or rCoa (0.2 μM)) was “reverses the inhibitory activities”.

B1: FBE5-A12: VH SEQ ID NO: 73, VL SEQ ID NO: 103 (antibody, V domains shown)
VH: QVQLVESGGGVVQPGRSLRLSCAASGFTFSSYGMHWVRQAPGKGLEWVAVISYDGSNKYYADSVKGRFTISRDNSKNTLYLQMNSLRGEDTAVYYCAREGGWEPNGLDYWGQGTLVTVSS
VL: QAVLTQPPSASGTPGQRVTISCSGSDFNVGTNYVNWYQQLPGSAPKLLIYRNNQRPSGVPDRFSGSKSGTSATLGITGLQTGDEADYYCGTWDSSLSAEVFGGGTKLTVL
In the case of B1, the “inhibition of CoaF, CoaRO and EfbA binding to Fg” value [1] is reported as “clear inhibition”, the “inhibition of EfbN and EfbO binding to Fg” value [1] is reported as “less efficient” and the “inhibition of binding to Fg of all proteins tested” value [1] is reported as “dose dependent inhibition of all proteins tested”.

B2: FBE5-F9: VH SEQ ID NO: 80, VL SEQ ID NO: 110 (antibody, V domains shown)
VH: QMQLVQSGGGVVQPGRSLRLSCAASGFTFSSYGMHWVRQAPGKGLEWVAVISYDGSNKYYADSVKGRFTISRDNSKNTLYLQMNSLRAEDTAVYYCAKEGDGDYGGVLDYWGQGTLVTVSS
VL: QSVLTQPPSVSAAPGQKVTISCSGSSSNIEKNYVSWYQQLPGTAPKLLIYDNNKRPSGIPDRFSGSKSGTSATLGITGLQTGDEADYYCGTWDSSLSAVVFGGGTKLTVL
In the case of B2, the “inhibition of CoaF, CoaRO and EfbA binding to Fg” value [1] is reported as “clear inhibition”, the “inhibition of EfbN and EfbO binding to Fg” value [1] is reported as “less efficient” and the “inhibition of binding to Fg of all proteins tested” value [1] is reported as “dose dependent inhibition of all proteins tested”.
